Data taken from US20180250426A1.

Molecular target: CA1.CD2-P40 (CA1.CD2 PEGylated with P40) (rat) (UniProt P08921)
Test: Western blot, CA1.CD2 PEGylated with P40

Sequence of CA1.CD2-P40 (CA1.CD2 PEGylated with P40) (rat) (P08921 23-121 limits assumed): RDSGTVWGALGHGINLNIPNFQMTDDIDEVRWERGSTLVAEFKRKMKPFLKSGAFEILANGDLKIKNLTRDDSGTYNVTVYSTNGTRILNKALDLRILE

decrease of binding against unmodified CA1.CD2: 50%
Substance: OX34 antibody
